This is an account of results in the supplement of paper PMC9170038.

This data set has as its system MS2 coat protein. Kind of data set: apparent KD of MS2 coat protein; designed switch direction (-1 OFF switch, 1 ON switch): -1; higher = weaker reporter binding. In short, it runs like this:
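Designed RNA switches were transcribed on Illumina chips by stalled E. coli RNA polymerase and titrated with SNAP-549-labelled MS2 coat protein from 0.7 or 1.5 nM, doubling to 3 µM. Step length ran from 0.8–1.5 h at the lowest concentration to 10–20 min at the highest. The apparent KD is the median over clusters for each design, from curve-fitted normalised cluster fluorescence.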

[1] abbreviates: input ligand: microRNA oligo, concentration not stated.
The mark [2] stands for this setting: Eterna round: R95, input ligand: microRNA oligo, concentration not stated.
Where [3] appears, read: Eterna round: R95, input ligand: FMN 200 uM.
The mark [4] stands for this setting: Eterna round: R95, input ligand: none.

Regarding “GUUUUCAGACGGAGAUCCUACAUGAGGAUCACCCAUGUCUCACAAGCUUUUUGCUCGUCUUAUACUCCUCUGUUCUC [Elimod 42 - Jieux - Sensor, turn-off variant 1] (Eterna round: R97, puzzle: Sensor, turn-off variant 1)”, the “apparent KD of MS2 coat protein” value is 83.5 nM (input ligand: FMN 200 uM) and 106 nM (input ligand: none).
With “GUUUUCAGACGGAGAUCCUACAUGAGGAUCACCCAUGUCUCUCUUGCUAAUUGCUCGUCUUUUUCUCCUCUGUUCUC [Elimod 36 - Jieux - Sensor, turn-off variant 1] (Eterna round: R97, puzzle: Sensor, turn-off variant 1)”, the “apparent KD of MS2 coat protein” value by setting is: (input ligand: FMN 200 uM) 81.2 nM; (input ligand: none) 95.8 nM.
In the case of “GUUUUGAGACGGAGAUCCGACAUGAGGAUCACCCAUGUCUCGCAAGCUUUUUGCUCGUCUUAUACUCCUCUGUUCUC [Elimod 45 - Jieux - Sensor, turn-off variant 1] (Eterna round: R97, puzzle: Sensor, turn-off variant 1)”, the “apparent KD of MS2 coat protein” value was determined as 17.8 nM (input ligand: FMN 200 uM) and 17.1 nM (input ligand: none).
“GUUUUGAUAGGAUAUACAUGAGGAUCACCCAUGUCCCACCCGUUACCUCUGACCCUAUGUAGAAGGAUCGUUUA [Exy#15] (Eterna round: R97, puzzle: Exclusion 3)”: the “apparent KD of MS2 coat protein” value by setting is: (input ligand: FMN 200 uM) 27.5 nM; (input ligand: none) 37.2 nM.
On to “UAAAAGAUGGACGAACCACAUGAGGAUCACCCAUGUCGAGGUUAGGAUAUGUCGUCCAUGGGACCACAGAAGGGACUGAAGACU [Teraqu] (Eterna round: R96, puzzle: Exclusion NG 3)”, for which the “apparent KD of MS2 coat protein” value was 16 nM (input ligand: FMN 200 uM), 11.3 nM under setting [1] and 20.2 nM (input ligand: none).
As to “UAAAAGCGAGGAUAUACAUGAGGAUCACCCAUGUGGGCAAAGUUCGCUAAGGUACCUAGUAGAAGGCGCGAAAU [Digeanin] (Eterna round: R97, puzzle: Exclusion 3)”, the “apparent KD of MS2 coat protein” value runs as follows: (input ligand: FMN 200 uM) 450 nM; (input ligand: none) 63.3 nM.
Turning to “UAAAAGGAAGGAUAUACACUUCAAAACCUCAUGUGACUUUCACAUGAGGAUCACCCAUGUAGAAGGUCCAAGGC [Letior] (puzzle: Exclusion 2)”, the “apparent KD of MS2 coat protein” value under setting [2] was 21.5 nM.
Consider “UAAAAGUCAGGAUAUGCGAGAGAUUGAAGUGUGGCAAGGUAGCAGAAGGGACAUGAGGAUCACCCAUGUGUGGC [JR_Exclu4_Sub096] (puzzle: Exclusion 4)”, for which the “apparent KD of MS2 coat protein” value under setting [2] came to 49 nM.
As for “UAAAAGUUAGGAUAUACAUGAGGAUCACCCAUGUCGCGGAACCGCGGCGAUUACUCCUGUAGAAGGAACAUCGU [Ribeat] (puzzle: Exclusion 3)”, under setting [2], the “apparent KD of MS2 coat protein” value was 125 nM.
In the case of “UAAAAUAGUGUGAGGAUAUGCUGGUCCUUGGAUCAGCAGAAGGCACAUGAGGAUCACCCAUGUAAAUAAUAAUA [Mat - Exclusion 4 - JL Mod - D27] (puzzle: Brourd's mod of Exclusion 4)”, the “apparent KD of MS2 coat protein” value was 184 nM under setting [3], 54.6 nM under setting [2] and 67.1 nM under setting [4].
As to “UAAAGACAUGAGGAUCACCCAUGUAAGGAUAUCGCCUGCGGUGGCGCCAGCCAUUAGGCGAGAAGGUGCGGUGA [Eternabot (L1) Solution 14] (Eterna round: R97, puzzle: Exclusion 1)”, the “apparent KD of MS2 coat protein” value came to 326 nM (input ligand: FMN 200 uM) and 417 nM (input ligand: none).
As for “UAAAGUAUAUAGGAUAUCUAGCUGGUAACAGCUAGAGAAGGAUGUACAUGAGGAUCACCCAUGUAAAUCAGUGA [Ex6/14-A2] (Eterna round: R97, puzzle: Exclusion 6)”, the “apparent KD of MS2 coat protein” value by setting is: (input ligand: FMN 200 uM) 23.3 nM; (input ligand: none) 17.9 nM.
For “UAAAUAAAUGUAGGAUAUCUGCACGUUUAGUGCAGAGAAGGACAUGAGGAUCACCCAUGUAUAGUAGCUUCGGCUACAAAUAAU [ENG1-C2] (Eterna round: R96, puzzle: Exclusion NG 1)”, the “apparent KD of MS2 coat protein” value by setting is: (input ligand: FMN 200 uM) 115 nM; under setting [1], 42.2 nM; (input ligand: none) 76.3 nM.
For the sequence “UAAAUAAGUGUGAGGAUAUGCUGGUCCUUGGAUCAGCAGAAGGCACAUGAGGAUCACCCAUGUAAUAUAUUUAU [Mat - Exclusion 4 - JL Mod - D61] (puzzle: Brourd's mod of Exclusion 4)”, the “apparent KD of MS2 coat protein” value under setting [2] was 68.1 nM.
On to “UAAAUGGUGUCAGGAUAUCCUGCAUAGUCUGCUGGAGAAGGGACAUGAGGAUCACCCAUGUAAGCCGGCAUGACUGAAUUCCUC [Atrice] (Eterna round: R96, puzzle: Exclusion NG 1)”, for which the “apparent KD of MS2 coat protein” value runs as follows: (input ligand: FMN 200 uM) 50.7 nM; under setting [1], 23.3 nM; (input ligand: none) 32.2 nM.
In the case of “UAAAUGUCAGGAUAUUGUUAAUUUAGUUGUUUGUAUUAGUUCGAGAAGGGACAUGAGGAUCACCCAUGUUAAAA [Ex4 #52] (Eterna round: R97, puzzle: Exclusion 4)”, the “apparent KD of MS2 coat protein” value reads like this: (input ligand: FMN 200 uM) 37.6 nM; (input ligand: none) 31 nM.
For “UAAAUGUGAGGAUAUCAGGUGUGCUAGCGAACUGGUACAUCUGAGAAGGCACAUGAGGAUCACCCAUGUUCCUU [Mat - Exclusion 4 - Mod of JL - D50] (puzzle: Exclusion 4)”, the “apparent KD of MS2 coat protein” value under setting [2] turned out to be 16.2 nM.
“UAAAUGUGAGGAUAUUCGAAGAACACGGAGACGUGUUUUUCGGAGAAGGCACAUGAGGAUCACCCAUGUUCCUU [Mat - Exclusion 4 - JL Mod - D6] (Eterna round: R97, puzzle: Exclusion 4)”: the “apparent KD of MS2 coat protein” value runs as follows: (input ligand: FMN 200 uM) 241 nM; (input ligand: none) 29.8 nM.
As for “UAACAUGUAGAAGGAUAUCUGCACGUUUAGUGCAGAGAAGGUCUAACAUGAGGAUCACCCAUGUAGAUCAUUAAUUAAUUAAUU [ENG1/8-B2] (Eterna round: R96, puzzle: Exclusion NG 1)”, the “apparent KD of MS2 coat protein” value was found to be 15.8 nM (input ligand: FMN 200 uM), 9.45 nM under setting [1] and 12.9 nM (input ligand: none).
For “UAACCUCGCGUCAGGAUAUGUGAGGACUGUGACGCACAGAAGGGACAUGAGGAUCACCCAUGUGAAAGAAAUAA [Erlacema] (puzzle: Brourd's mod of Exclusion 4)”, under setting [2], the “apparent KD of MS2 coat protein” value came out at 22.2 nM.
For the sequence “UAACUUCUUGUAAGGAUAUCGGUCCCAAGGGACAACGAGAAGGUACAUGAGGAUCACCCAUGUGAAAUAAGAAU [Zala] (puzzle: Brourd's mod of Exclusion 4)”, the “apparent KD of MS2 coat protein” value came out at 66.6 nM under setting [3], 22.7 nM under setting [2] and 19.8 nM under setting [4].
On to “UAAGAAUACUGAGGAUAUGCUAGUUUAUCUCAGGCAGAAGGCGGACUCAACAUGAGGAUCACCCAUGUAAGACGGGUACUAGAU [Ex NG1 #14] (Eterna round: R96, puzzle: Exclusion NG 1)”, for which the “apparent KD of MS2 coat protein” value came out at 131 nM (input ligand: FMN 200 uM), 92.2 nM under setting [1] and 89 nM (input ligand: none).
In the same order, the values of “UAAGAUUACCGAGGAUAUGCUGGUUUAUCUCAAGCAGAAGGCGGACUCAACAUGAGGAUCACCCAUGUAAGACGGGUACUAGAU [Ex NG1 #12] (Eterna round: R96, puzzle: Exclusion NG 1)” are 61.5 nM, 69.1 nM and 97.1 nM.
